According to patent publication US5955575A, “Antagonists of G-protein-coupled receptor” (Hopital Sainte-Justine, priority 1997, dated 1999):
No end group written: not given here.

Experiments:
Format in all cases: cell-based
[1] = biological target: T1, EP1 (Homo sapiens, UniProt P34995); experiment: Phosphoinositide hydrolysis in A549 cells stably expressing the peptides, stimulated with PGE2 (specificity); details: peptide stably expressed intracellularly in A549 cells; 1 μM PGE2 for 30 min; FIG. 1B
T1 construct: a related prostaglandin receptor expressed in these cells; endogenous in cells; host or cells: A549 lung carcinoma cells (ATCC CCL185)
T1 sequence (P34995 1-402): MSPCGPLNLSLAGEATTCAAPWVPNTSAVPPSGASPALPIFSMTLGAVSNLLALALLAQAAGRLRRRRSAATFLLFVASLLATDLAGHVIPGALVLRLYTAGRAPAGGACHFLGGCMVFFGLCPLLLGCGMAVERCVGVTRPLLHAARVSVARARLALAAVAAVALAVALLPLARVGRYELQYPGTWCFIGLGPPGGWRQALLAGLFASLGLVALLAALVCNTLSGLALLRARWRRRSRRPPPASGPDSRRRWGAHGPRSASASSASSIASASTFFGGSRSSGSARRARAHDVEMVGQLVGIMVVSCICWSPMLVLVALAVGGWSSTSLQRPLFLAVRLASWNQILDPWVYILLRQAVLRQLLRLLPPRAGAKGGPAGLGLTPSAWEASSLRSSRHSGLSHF
Description: (§1) A549 lung carcinoma cells (ATCC Accession No.: CCL185, American Type Culture Collection, Rockville, Md. 20852) were cultured in Dulbecco's modified Eagles medium (DMEM) with 10% fetal bovine serum (FBS) and antibiotics, penicillin (10 U/ml) and streptomycin (10 μg/ml) in a humidified atmosphere containing 5% CO2 at 37° C. The cells were trypsinized and plated in 6-well tissue culture dishes at 2×10^5 cells/well, a day before commencing the experiments.
(§2) The expression plasmids carrying the third (PCP-1) and the fourth (PCP-2) intracellular domains were introduced into A549 cells using Transfectamine lipid (GIBCO Life Technologies, Burlington, ON). Three (3) micrograms of DNA and 16 μg of lipid were mixed in 200 μl of water and incubated at room temperature for 45 min. Then, the lipid-DNA complexes were diluted with 0.8 ml of Opti-MEM™ (GIBCO Life Technologies, Burlington, ON). The cells were washed twice with Hank's Balanced Salt Solution and incubated with lipid-DNA complexes for 6 hours. An equal volume of DMEM with 20% FBS was added and the cells were kept in the incubator overnight. On the next day, the medium was replaced with DMEM containing 10% FBS and antibiotics and incubated for another 24 hours. […]

[2] = biological target: T2, FP receptor (Homo sapiens, UniProt P43088); experiment: Phosphoinositide hydrolysis in A549 cells stably expressing the peptides, stimulated with PGF2α; details: peptide stably expressed intracellularly in A549 cells; 1 μM PGF2α for 30 min; n=3; FIG. 1A
T2 construct: endogenous in cells; host or cells: A549 lung carcinoma cells (ATCC CCL185)
T2 sequence (P43088 whole entry): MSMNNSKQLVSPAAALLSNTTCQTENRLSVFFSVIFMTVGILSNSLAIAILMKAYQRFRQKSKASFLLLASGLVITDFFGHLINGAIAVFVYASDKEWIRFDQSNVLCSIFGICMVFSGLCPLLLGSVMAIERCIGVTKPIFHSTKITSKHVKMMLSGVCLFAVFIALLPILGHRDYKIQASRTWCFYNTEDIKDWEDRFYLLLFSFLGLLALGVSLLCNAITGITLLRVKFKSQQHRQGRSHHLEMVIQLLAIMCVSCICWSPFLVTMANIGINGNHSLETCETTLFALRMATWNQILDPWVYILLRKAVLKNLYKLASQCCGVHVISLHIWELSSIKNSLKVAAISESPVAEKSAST
Description: as §1, §2

[3] = biological target: T2, FP receptor; experiment: Phosphoinositide hydrolysis in permeabilized A549 cells loaded with synthetic peptides, stimulated with PGF2α; details: dose-response in permeabilized A549 cells stimulated with PGF2α; FIG. 2B; read-out: half maximal inhibitory concentration

Substance | inositol phosphate generation by EP1 receptor [1] | ligand-stimulated phosphoinositide hydrolysis (fold stimulation over unstimulated controls) [2] | IC50 [3] [µM]
RVKFKSQQHR QGRSHHLEM (RVKFKSQQHRQGRSHHLEM) [PCP-1] | did not affect | inhibited | 
RKAVLKNLYKLASQCCGVHVISLHIWELSSIKNSLKVAAISESPVAEKSAST (RKAVLKNLYKLASQCCGVHVISLHIWELSSIKNSLKVAAISESPVAEKSAST) [PCP-2] | did not affect | inhibited | 
KDTILQLNLKEYNLV-NH2 [PCP-4, KDTILQLNLK EYNLV-NH2] |  |  | 50
